Data published in US20240361320A1.

Target: SARS-CoV-2 3CL^pro enzyme (Recombinant derived from Escherichia coli, ab277614, ABCAM; SEQ ID NO:2) (SARS-CoV-2) (UniProt P0DTC1)
Test: cell-based or functional assay

## myoglobin antibody (Monoclonal rabbit-derived, ab77232, ABCAM; binding to SEQ ID NO:5)
  oxidation peak shift (ΔEPeak) of pBQ: 0 mV
